# In patent US20210139608:
# Tested on: T1, MMP2-cleavable peptide linker CGPLGVRGG within the MAP-Ab conjugate (imuGlue)
# T1 sequence: CGPLGVRGG
substance,measurement,value
MMP2 (matrix metalloproteinase-2),cumulative Ab release profile from MAP-Ab in the presence of MMP2,the imuGlue may release 75% of Ab sprayed for 24 hours in the presence of MMP2
same,emission spectrum of MAP-Ab with or without MMP2,"when MMP2 treatment was carried out, a blue shift was observed in the MAP-Ab emission spectrum"
